Source: publication PMC5409509, “The mismatch repair and meiotic recombination endonuclease Mlh1-Mlh3 is activated by polymer formation and can cleave DNA substrates in trans”

T1: Mlh1-Mlh3 (Saccharomyces cerevisiae, UniProt P38920;Q12083 1-769;1-715)
T1 sequence 1: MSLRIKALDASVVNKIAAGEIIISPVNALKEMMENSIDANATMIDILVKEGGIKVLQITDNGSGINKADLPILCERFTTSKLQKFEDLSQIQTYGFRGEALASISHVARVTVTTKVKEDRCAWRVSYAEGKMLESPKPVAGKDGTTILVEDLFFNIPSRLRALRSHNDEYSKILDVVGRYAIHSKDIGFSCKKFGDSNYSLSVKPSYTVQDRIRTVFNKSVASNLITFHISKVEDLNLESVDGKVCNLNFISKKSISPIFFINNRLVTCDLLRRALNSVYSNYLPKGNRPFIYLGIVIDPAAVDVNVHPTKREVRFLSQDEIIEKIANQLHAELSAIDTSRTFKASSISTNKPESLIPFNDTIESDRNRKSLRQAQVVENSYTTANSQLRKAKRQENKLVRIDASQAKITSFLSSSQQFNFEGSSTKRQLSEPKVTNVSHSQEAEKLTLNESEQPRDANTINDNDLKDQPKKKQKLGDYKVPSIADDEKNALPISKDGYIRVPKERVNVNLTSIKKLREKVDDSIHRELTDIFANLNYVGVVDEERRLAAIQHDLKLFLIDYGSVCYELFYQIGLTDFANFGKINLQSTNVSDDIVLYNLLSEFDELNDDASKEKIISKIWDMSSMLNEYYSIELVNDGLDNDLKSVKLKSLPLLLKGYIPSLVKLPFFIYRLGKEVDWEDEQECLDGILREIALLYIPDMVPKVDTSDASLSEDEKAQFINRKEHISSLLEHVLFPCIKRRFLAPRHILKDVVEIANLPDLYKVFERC
T1 sequence 2: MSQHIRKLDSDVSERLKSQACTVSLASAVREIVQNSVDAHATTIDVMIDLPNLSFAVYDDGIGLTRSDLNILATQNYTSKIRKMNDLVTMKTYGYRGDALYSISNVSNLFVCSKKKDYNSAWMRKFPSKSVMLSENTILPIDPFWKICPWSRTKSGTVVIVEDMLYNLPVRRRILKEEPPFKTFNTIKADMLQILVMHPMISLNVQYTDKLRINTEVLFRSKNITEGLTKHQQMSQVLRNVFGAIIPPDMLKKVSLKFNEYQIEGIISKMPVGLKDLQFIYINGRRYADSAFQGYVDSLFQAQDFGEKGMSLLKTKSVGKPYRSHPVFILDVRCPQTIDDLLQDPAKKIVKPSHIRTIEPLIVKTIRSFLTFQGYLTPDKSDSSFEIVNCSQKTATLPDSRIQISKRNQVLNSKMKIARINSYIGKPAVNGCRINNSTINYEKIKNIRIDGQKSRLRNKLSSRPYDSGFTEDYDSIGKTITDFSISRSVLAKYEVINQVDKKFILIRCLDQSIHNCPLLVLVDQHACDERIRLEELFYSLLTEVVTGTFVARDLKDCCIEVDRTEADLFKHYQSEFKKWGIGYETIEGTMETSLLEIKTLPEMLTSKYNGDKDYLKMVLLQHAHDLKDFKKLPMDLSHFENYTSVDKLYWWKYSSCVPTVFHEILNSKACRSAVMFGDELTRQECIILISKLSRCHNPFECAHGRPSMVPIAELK

B1: Holliday junction X26 (structured_DNA)
DNA 1: GCGCTACCAGTGATCACCAATGGATTGCTAGGACATCTTTGCCCACCTGCAGGTTCACCC
DNA 2: GGGTGAACCTGCAGGTGGGCAAAGATGTCCTAGCAATCCATTGTCTATGACGTCAAGCTC
DNA 3: GAGCTTGACGTCATAGACAATGGATTGCTAGGACATCTTTGCCGTCTTGTCAATATCGGC
DNA 4: GCCGATATTGACAAGACGGCAAAGATGTCCTAGCAATCCATTGGTGATCACTGGTAGCGC
B2: +8 loop oligonucleotide (AO3142/AO3143) (dsDNA)
DNA 1: GGGTCAACGTGGGCAAAGATGTCCTAGCAAGTCAGAATTCGGTAGCGTG
DNA 2: CACGCTACCGAATTCTGACTTGCTAGGTGTGTGTGACATCTTTGCCCACGTTGACCC

Legend:
Mlh1-Mlh3 [1] = target: T1, Mlh1-Mlh3; assay: competition; very strong competitor of plasmid nicking, 0-2000 nM, 1 mM Mg2+; Filter binding: 20 mM Tris-HCl pH 7.5, 0.01 mM EDTA, 2 mM MgCl2, 40 ug/mL BSA, 0.1 mM DTT, 15 uM nucleotide DNA, 10 min at 30 C (20 or 150 mM KCl in Fig 4B; KCl not stated for Fig 4A); details: protein: recombinant; copies: 1;1; 4-way junction with 26 bp mobile homologous core
Mlh1-Mlh3 [2] = target: T1, Mlh1-Mlh3; assay: competition; very strong competitor of plasmid nicking, 0-2000 nM oligo, 1 mM Mg2+; Filter binding: 20 mM Tris-HCl pH 7.5, 0.01 mM EDTA, 2 mM MgCl2, 40 ug/mL BSA, 0.1 mM DTT, 15 uM nucleotide DNA, 10 min at 30 C (20 or 150 mM KCl in Fig 4B; KCl not stated for Fig 4A); details: protein: recombinant; copies: 1;1; blunt

| Binder | binding result (Mlh1-Mlh3 [1]) | binding result (Mlh1-Mlh3 [2]) |
| --- | --- | --- |
| B1 | binds |  |
| B2 |  | binds |
